Test [1] deals with T1, Cyno TIGIT-His.
T1 construct: also called cyno TIGIT monomer (prepared in-house); C-terminal HIS-tagged cyno TIGIT ECD recombinant protein
The test can be described thus: SPR (ProteOn), Cyno TIGIT-His.

In test [2] the target is T2, human TIGIT ECD with C-terminal polyhistidine tag (human, UniProt Q495A1 22-141).
T2 construct: in-house or Sino Biological; also called hTIGIT-HIS; human TIGIT-HIS
T2 sequence: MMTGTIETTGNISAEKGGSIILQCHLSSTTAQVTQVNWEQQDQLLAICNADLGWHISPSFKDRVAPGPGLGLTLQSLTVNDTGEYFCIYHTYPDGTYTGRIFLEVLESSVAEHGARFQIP
The test can be described thus: SPR (ProteOn), Human TIGIT-His.

The target of test [3] is T2, human TIGIT ECD with C-terminal …. The test can be described thus: KinExA equilibrium, His-tagged human TIGIT, n = 1. (In general: Kinetic exclusion samples the free partner from a solution-phase mixture.)
Experimental: (§1) KinExA equilibrium experiments were performed using a KinExA 3200 instrument (Sapidyne Instruments, Boise, ID, USA) at 22° C. Recombinant His-tagged human TIGIT was obtained from Sino Biologicals (Beijing, China) and reconstituted into 1×PBS. All antigen and antibody samples for KinExA analyses were prepared in degassed PBST buffer (PBS with 0.05% tween 20) with 100 ug/mL filtered BSA and 0.02% sodium azide. […] For each KinExA experiment, ˜20 lag of human TIGIT was diluted into 1 mL of 50 mM sodium carbonate, pH 9.2 which was added directly to 50 mg of azlactone beads (Ultralink Support, Thermo Scientific, Rockford, IL, USA) and rocked overnight at 4° C. After rocking, the beads were rinsed once with 1 M Tris buffer, pH 8.5, containing 10 mg/mL BSA and rocked for one hour at room temperature in the same buffer. Coupled beads were added to the bead reservoir in the KinExA instrument and diluted to ˜30 mL with 1×HBS-N (0.01 M Hepes, 0.15M NaCl, GE Healthcare) containing 0.02% sodium azide which was also the running buffer for the KinExA instrument. All antigen-coupled beads were used immediately after preparation.
(§2) The volume flowed through the bead pack for each equilibrated sample for all experiments ranged from 4 mL to 11 mL at a flow rate of 0.25 mL/min.
Test [4] has the same target. The test can be described thus: KinExA equilibrium, His-tagged human TIGIT, n = 2.
Experimental: as §1, §2
The target is the same in test [5]. Kind of test: SPR (ProteOn), mAb captured, human TIGIT injected; BM26 as hIgG4.
Another test concerns the target T3, Mouse TIGIT-His (mouse, UniProt P86176).
T3 construct: also called mouse TIGIT monomer (prepared in-house)
T3 sequence (soluble monomer with His tag, looked up): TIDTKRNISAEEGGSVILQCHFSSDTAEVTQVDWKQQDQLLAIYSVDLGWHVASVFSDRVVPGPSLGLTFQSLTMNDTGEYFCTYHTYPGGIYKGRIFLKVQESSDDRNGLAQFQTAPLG
Kind of test: SPR (ProteOn), mAb captured, mouse TIGIT monomer injected; BM26 as hIgG4.

Test [6] has as its target T4, human TIGIT on cells (human, UniProt Q495A1 22-141).
T4 construct: also called Expi293 human TIGIT over-expressing cells
T4 sequence: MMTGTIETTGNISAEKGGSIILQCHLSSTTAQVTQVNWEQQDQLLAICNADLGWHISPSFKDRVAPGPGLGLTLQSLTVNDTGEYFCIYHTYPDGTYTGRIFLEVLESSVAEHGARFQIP
Kind of test: FACS titration of AF647-labelled mAb on human effector memory CD8+ T cells, Donor 321.

The target in test [7] is T4, human TIGIT on cells. The test can be described thus: FACS titration of AF647-labelled mAb on human effector memory CD8+ T cells, Donor 322.
The target of test [8] is T4, human TIGIT on cells. Kind of test: FACS titration of AF647-labelled mAb on human effector memory CD8+ T cells, Donor 334.
The target in test [9] is T1, Cyno TIGIT-His. The test can be described thus: SPR (ProteOn), mAb captured, cyno TIGIT monomer injected; kd of this row held constant; BM26 as hIgG4.
In test [10] the target is T4, human TIGIT on cells. Kind of test: FACS blocking of human PVR-m2aFc binding to human TIGIT OE Expi293 cells; binding site concentration; n=1.
The target in test [11] is T4, human TIGIT on cells. The test can be described thus: FACS blocking of human PVR-m2aFc binding to human TIGIT OE Expi293 cells; binding site concentration; n=2.
Test [12] concerns the target T5, cyno TIGIT on cells (cynomolgus macaque).
T5 construct: whole, on cells; also called Expi293 cyno TIGIT over-expressing cells
The test can be described thus: FACS titration of AF647-labelled mAb on cyno effector memory CD8+ T cells, Cyno Donor 1; isotype gMFI subtracted.

The target of test [13] is T5, cyno TIGIT on cells. Kind of test: FACS titration of AF647-labelled mAb on cyno effector memory CD8+ T cells, Cyno Donor 3; isotype gMFI subtracted.
Test [14] concerns the target T5, cyno TIGIT on cells. Kind of test: FACS titration on cyno TIGIT OE Expi293 cells, binding site concentration; ± 95% CI; 'Fit: Good'; panel of the lower row.
Experimental: (§3) AF647-labeled goat anti-human F(ab′) (Jackson Immunoresearch) was added to the cells to detect binding of anti-TIGIT antibodies. The gMFI of the anti-TIGIT antibodies bound to the cyno TIGIT over-expressing Expi293 cells (black line), and the parental Expi293 cells (grey line) are shown.
Test [15] concerns the target T4, human TIGIT on cells. Kind of test: FACS blocking: Expi293 human TIGIT cells pre-incubated with mAb, then human PVR-m2aFc; lower gMFI = more blocking.
Test [16] concerns the target T5, cyno TIGIT on cells. Kind of test: FACS titration on cyno TIGIT OE Expi293 cells, binding site concentration; ± 95% CI; 'Fit: Excellent'; panel of the upper row.
Experimental: as §3
The target of test [17] is T4, human TIGIT on cells. Kind of test: FACS titration on human TIGIT OE Expi293 cells, binding site concentration; ± 95% CI; 'Fit: Good/Excellent'; panel of the lower row.
Experimental: (§4) AF647-labeled goat anti-human F(ab′) (Jackson Immunoresearch) was added to the cells to detect binding of anti-TIGIT antibodies.
Test [18] deals with T4, human TIGIT on cells. Kind of test: FACS titration on human TIGIT OE Expi293 cells, binding site concentration; ± 95% CI; 'Fit: Good/Excellent'; panel of the upper row.
Experimental: as §4
In the next test the target is T6, mPVRL2 HIS (mouse, UniProt P32507 32-351, limits assumed).
T6 construct: also called mPVRL2 protein; Soluble PVRL2 HIS protein
T6 sequence (looked up): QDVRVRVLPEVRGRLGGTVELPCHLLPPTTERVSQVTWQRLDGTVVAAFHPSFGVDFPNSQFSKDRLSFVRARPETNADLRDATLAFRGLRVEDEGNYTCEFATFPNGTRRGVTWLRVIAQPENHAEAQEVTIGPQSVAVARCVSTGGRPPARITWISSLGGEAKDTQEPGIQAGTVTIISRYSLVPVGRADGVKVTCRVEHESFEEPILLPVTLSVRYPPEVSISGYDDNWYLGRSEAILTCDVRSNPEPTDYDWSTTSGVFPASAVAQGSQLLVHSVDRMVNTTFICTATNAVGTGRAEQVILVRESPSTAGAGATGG
The test can be described thus: ELISA: soluble PVRL2 HIS titrated on plates coated with mDNAM1-mFc. (In general: In an ELISA, binding on a coated surface is turned into a signal by an enzyme label.)

Test [19] has as its target T7, human PVRIG on cells (human, UniProt Q6DKI7 1-326).
T7 construct: whole, on cells; over-expressed on HEK cells or endogenous on Jurkat and CD8 T cells; also called hPVRIG; HEK hPVRIG cells
T7 sequence (looked up): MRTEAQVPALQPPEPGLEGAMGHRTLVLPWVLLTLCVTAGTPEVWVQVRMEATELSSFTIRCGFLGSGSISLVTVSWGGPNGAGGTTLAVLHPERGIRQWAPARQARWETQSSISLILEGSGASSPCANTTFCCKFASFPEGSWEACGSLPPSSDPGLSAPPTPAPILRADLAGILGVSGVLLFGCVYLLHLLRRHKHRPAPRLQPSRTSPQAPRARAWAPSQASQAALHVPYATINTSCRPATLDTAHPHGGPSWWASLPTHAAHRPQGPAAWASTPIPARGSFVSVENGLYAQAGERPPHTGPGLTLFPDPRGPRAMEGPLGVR
Kind of test: flow cytometry titration, HEK hPVRIG cells.
Experimental: These cells were cultured in DMEM (Gibco)+10% fetal calf serum (Gibco)+glutamax (Gibco). For the HEK hPVRIG over-expressing cells, 0.5 ug/ml puromycin (Gibco) was also added to the media for positive selection. For FACS analysis, all cell lines were harvested in log phase growth and 50,000-100,000 cells per well were seeded in 96 well plates. […] The titration series was conducted as 3 fold serial dilutions. […] Data was acquired using a FACS Canto II (BD Biosciences), FACS LSR Fortessa X-20 (BD Biosciences), or IntelliCyt (IntelliCyt Corporation) and analyzed using FlowJo (Treestar) and Prism (Graphpad) software.

The target of test [20] is T8, cynomolgus PVRIG on cells (cynomolgus, UniProt A0A2K5WVV8 41-322).
T8 construct: whole, on cells; also called cPVRIG; expi cPVRIG cells
T8 sequence: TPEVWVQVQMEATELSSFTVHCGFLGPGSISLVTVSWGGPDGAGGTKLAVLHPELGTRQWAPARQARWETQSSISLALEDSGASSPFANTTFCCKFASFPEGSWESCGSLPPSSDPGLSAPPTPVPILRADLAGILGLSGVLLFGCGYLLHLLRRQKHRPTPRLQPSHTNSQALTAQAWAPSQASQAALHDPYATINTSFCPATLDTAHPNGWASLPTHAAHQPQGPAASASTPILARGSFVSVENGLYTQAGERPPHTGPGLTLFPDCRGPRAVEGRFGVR
The test can be described thus: flow cytometry titration, expi cPVRIG cells. For orientation: In flow cytometry, cells or beads pass a laser one at a time.
Experimental: These cells were cultured in DMEM+10% fetal calf serum+glutamax. expi cPVRIG transient over-expressing cells were generated by electroporating cPVRIG DNA into parental expi cells using the Neon transfection system. For FACS analysis, expi cPVRIG cells were used between 1-3 days-post transfection. Parental expi cells were harvested from log growth phase. 50,000-100,000 cells of per well of each type were seeded in 96 well plates. […] The titration series were conducted as a 3-fold dilution series. […] Data was acquired using a FACS Canto II or IntelliCyte and analyzed using FlowJo and Prism software.

In test [21] the target is T7, human PVRIG on cells. The test can be described thus: FACS competition: PVRL2 mFc binding to HEK hPVRIG cells.
Experimental: Cells were washed twice in PBS for acquisition using a FACS Canto II. Data was analyzed using FlowJo, Excel and Prism.
The target of test [22] is T7, human PVRIG on cells. The test can be described thus: FACS on Jurkat cells pre-incubated with Isotype (unconjugated).
Text: (§5) Data was acquired using a FACS Canto II and analysed using FlowJo, Excel, and Prism.
Test [23] has as its target T7, human PVRIG on cells. Kind of test: FACS on Jurkat cells pre-incubated with CHA.7.518.1 (unconjugated).
Text: as §5
The target of test [24] is T7, human PVRIG on cells. The test can be described thus: FACS on Jurkat cells pre-incubated with CHA.7.538.1.2 (unconjugated).
Text: as §5
Test [25] has as its target T7, human PVRIG on cells. Kind of test: FACS KD, cell type 'Jurkat' (table beside the curve, column 'FACS KD (nM)').
Test [26] addresses T9, PVRIG Fc (UniProt Q6DKI7 41-171, limits assumed, biotinylated (Example 5)).
T9 construct: also called biotinylated PVRIG Fc protein; PVRIG-Fc-fusion protein
T9 sequence (looked up): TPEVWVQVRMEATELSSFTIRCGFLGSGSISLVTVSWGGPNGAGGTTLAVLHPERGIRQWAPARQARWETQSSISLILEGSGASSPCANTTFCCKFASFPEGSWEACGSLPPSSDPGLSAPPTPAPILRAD
The test can be described thus: FACS competition: biotinylated PVRIG Fc (33 nM) binding to HEK cells with endogenous PVRL2.
Experimental: (§6) Cells were washed twice in PBS for acquisition using a FACS Canto II. Data was analyzed using FlowJo, Excel (Microsoft), and Prism.

Test [27] has as its target T8, cynomolgus PVRIG on cells. The test can be described thus: FACS KD, cell type 'HEK293 cPVRIG' (table beside the curve, column 'FACS KD (nM)').
The target of test [28] is T7, human PVRIG on cells. Kind of test: FACS KD, cell type 'HEK293 hPVRIG' (table beside the curve, column 'FACS KD (nM)').
For test [29], the target named is T9, PVRIG Fc. Kind of test: FACS blocking assay: binding of PVRIG Fc to HEK cells that endogenously express PVRL2, with the antibody titrated.
Experimental: as §6

T1 sequence (ECD with C-terminal His tag, as listed by the source): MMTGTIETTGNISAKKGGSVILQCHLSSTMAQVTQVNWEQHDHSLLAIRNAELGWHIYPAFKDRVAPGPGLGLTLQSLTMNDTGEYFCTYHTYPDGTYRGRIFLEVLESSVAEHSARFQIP

B1: BM26 hIgG4 (antibody, V domains shown)
VH: EVQLQQSGPELVKPGSSVKMSCKASGYTFSSYVMHWVKQKPGQGLEWIGYIDPYNDGAKYNEKFKGKATLTSDKSSSTAYMELSSLTSEDSAVYYCARGGPYGWYFDVWGAGTTVTVSS
VL: DIQMTQSPASLSASVGETVTITCRASEHIYSYLSWYQQKQGKSPQLLVYNAKTLAEGVPSRFSGSGSGTQFSLKINSLQPEDFGTYYCQHHFGSPLTFGAGTTLELKR
notes: benchmark anti-human TIGIT antibody, human IgG4 with S241P; also called BM26-H4; WO2016/028656A1 Clone 3106 as hIgG4
In the case of B1, the Kd (in general, the equilibrium constant for the complex coming apart) was 0.0035 nM with Cyno TIGIT-His [1]; 0.004 nM in test [2]; 0.0082 nM in test [3]; 0.0112 nM in test [4]; 0.0241 nM in [5]; 0.93 nM with human TIGIT on cells [6]. The Kd with human TIGIT on cells [7] came out at 1.4 nM; with human TIGIT on cells [8], 0.81 nM; with Cyno TIGIT-His [9], 0.00125 nM; with cyno TIGIT on cells [12], 4.6 nM; in the test with cyno TIGIT on cells [13] it was 7.5 nM; with cyno TIGIT on cells [14], 1.12 nM. Also, the figures for the Kd with cyno TIGIT on cells [16], with human TIGIT on cells [17] and with human TIGIT on cells [18] were 0.69 nM, 0.74 nM and 0.44 nM, respectively. Moreover, in the test with Mouse TIGIT-His, the binding result is “no binding (tested: 92.9 nM mouse TIGIT)”. The half-maximal inhibitory concentration (IC50) (commonly the concentration needed to halve the response being measured) worked out at 0.45 nM with human TIGIT on cells [10] and 0.26 nM with human TIGIT on cells [11]. Besides, the “gMFI of bound PVR-m2aFc at 266 pM mAb” value with human TIGIT on cells [15] was 719. Also, the “gMFI of bound PVR-m2aFc at 1.3 nM mAb” value with human TIGIT on cells [15] was found to be 401. For the same molecule, the “gMFI of bound PVR-m2aFc at 6.7 nM mAb” value in the test with human TIGIT on cells [15] is 234.

B2: DNAM1 Fc (Fc fusion, mouse (prefix m in FIG. 95D), UniProt Q8K4F0 19-254, looked up)
fusion chain: EETLWDTTVRLSETMTLECVYPLTHNLTQVEWTKNTGTKTVSIAVYNPNHNMHIESNYLHRVHFLNSTVGFRNMSLSFYNASEADIGIYSCLFHAFPNGPWEKKIKVVWSDSFEIAAPSDSYLSAEPGQDVTLTCQLPRTWPVQQVIWEKVQPHQVDILASCNLSQETRYTSKYLRQTRSNCSQGSMKSILIIPNAMAADSGLYRCRSEAITGKNKSFVIRLIITDGGTNKHFILP
notes: receptor part of an Fc fusion; also called mDNAM1-mFc
Consider B2, for which, in the test with mPVRL2 HIS, the binding result is “binds”.

B3: CHA.7.518.1.H4(S241P) (antibody, human IgG4 S228P, kappa, V domains shown)
VH: QVQLVQSGAEVKKPGASVKVSCKASGYTFTDYNINWVRQAPGQGLEWMGYIYPYIGGSGYAQKFQGRVTMTRDTSTSTVYMELSSLRSEDTAVYYCAREDKTARNAMDYWGQGTLVTVSS
VL: DIQMTQSPSSLSASVGDRVTITCRVSENIYSNLAWYQQKPGKAPKLLIYEATNLAEGVPSRFSGSGSGTDFTLTISSLQPEDFATYYCQHFWGTPYTFGQGTKLEIKR
notes: humanized, human IgG4 with S241P; also called anti-PVRIG
For B3, the Kd with human PVRIG on cells [19] worked out at 0.29 nM; in test [20], 0.24 nM; with human PVRIG on cells [25], 0.15 nM; in [27], 0.248 nM; in the test with human PVRIG on cells [28], 0.298 nM. The IC50 was determined as 1.8 nM with human PVRIG on cells [21] and 15 nM in the test with PVRIG Fc [26]. In addition, the “% binding relative to maximum signal” value amounted to 100% with human PVRIG on cells [22], 14% with human PVRIG on cells [23] and 7% with human PVRIG on cells [24]. The “IC50 (read off the curve)” value with PVRIG Fc [29] was about 6 nM.

These data come from patent publication US20240075137A1 (COMPUGEN, published 2024).
